In brackets after ≈: the same amount, converted by molar mass.

The record followed here is patent US20110112037A1, “CRYSTAL STRUCTURE” (Heptares Therapeutics Limited BioPark, priority 2008, published 2011).

System in the first data set: not listed separately
As to the kind of experiment: physchem. The data set is classed as physicochemical. To be noted: aqueous buffer.
On to `CC(C)(C)NCC(O)COc1cccc2[nH]c(C#N)cc12` (stereo not shown) [cyanopindolol], for which the concentration in solution (solubility) was 750 µM (≈ 216 µg/mL).

The target of another data set is m23 mutant receptor (Meleagris gallopavo, UniProt P07700, A282L/F327A/F338M/M90V/R68S/Y227A).
m23 mutant receptor, sequence (P07700 whole entry R68S/M90V/Y227A/A282L/F327A/F338M): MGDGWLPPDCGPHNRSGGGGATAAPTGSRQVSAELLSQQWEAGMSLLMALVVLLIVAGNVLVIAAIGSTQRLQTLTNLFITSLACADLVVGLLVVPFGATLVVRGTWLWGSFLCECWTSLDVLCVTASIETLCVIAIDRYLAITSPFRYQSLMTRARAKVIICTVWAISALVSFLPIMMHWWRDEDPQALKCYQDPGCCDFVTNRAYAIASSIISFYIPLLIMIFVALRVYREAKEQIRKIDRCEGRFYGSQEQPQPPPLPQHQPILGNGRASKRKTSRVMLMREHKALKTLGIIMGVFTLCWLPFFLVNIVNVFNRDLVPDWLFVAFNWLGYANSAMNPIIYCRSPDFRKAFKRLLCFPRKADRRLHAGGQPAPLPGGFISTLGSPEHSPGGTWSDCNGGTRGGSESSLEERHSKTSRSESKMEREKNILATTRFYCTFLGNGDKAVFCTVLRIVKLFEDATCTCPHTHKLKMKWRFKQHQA
Experiment: not given
To be noted: FIG. 11.
In the case of `Cc1ccc(OCC(O)C(C)NC(C)C)c2c1CCC2` (stereo not shown) [ICI 118551], the “effect on cAMP accumulation by m23” value is “does not depress the cAMP accumulation”.

System in a further data set: not listed separately
As to the kind of experiment: Thermal stability of β1AR point mutants (Table 3) and of β1-m23 in detergent. The data set is classed as physicochemical, turkey. To be noted: β1AR alanine mutants in CL2. The source says: Short-chain detergents, such as nonyl- and octyl-glucosides, are the best choice for crystallisation of small membrane proteins, but β1 was unstable in them and precipitated upon detergent exchange (Warne et al 2003). We therefore expressed β1 in an Escherichia coli expression system (Grisshammer et al) and evolved it into a conformationally thermostabilised form (β1-m23) that is stable even in short-chain detergents (Serrano PNAS). […] The receptor construct that crystallised (FIG. 1) has deletions at the N-terminus, C-terminus and in cytoplasmic loop 3 to remove regions that were predicted to be unstructured (Warne et al 2003). It also contains 8 point mutations, 6 for thermostabilisation (R68^1.59S, M90^2.52V, Y227^5.58A, A282^6.27L, F327^7.38A, F338^7.49M), one for improved expression (C116^3.27L) and one for the removal of a palmitoylation site (C358^8.53A).
The CL2 loop has been proposed to function as the switch enabling G protein activation (Burstein et al 1998) and, from the β1 structure, it is clear that this region also has an important contact to the adjacent highly conserved D^3.49R^3.50Y^3.51 motif in helix 3. […] This is mainly due to the increased distance between the Cα atoms of Arg^3.50 and Glu^6.30 in β1 (10.9 Å) and β2 (11.2 Å) compared with rhodopsin (8.7 Å). There is, however, an intrahelical interaction between Asp^3.49 and […] of the DRY motif in all three […] structures. The helical conformation of CL2 in the β1 structure positions Tyr149^3.89 sufficiently close to Asp138^3.49 of the DRY motif to allow the formation of a H-bond. Supporting evidence for this structural role of Tyr149^3.89 comes from the observation that the Y149A mutation makes β1AR much less thermally stable (Table 3). The equivalent Tyr141^3.60 in both β2 structures is in a cavity between helix 3, 4 and 6, but the biological relevance of this is unclear, due to the perturbations in this region caused by either the T4 lysozyme fusion or by the bound antibody Fab.
In the case of P146A: β1AR point mutant P146A, the “Stability (wild type = 100)” value amounted to 13.

Regarding T144A: β1AR point mutant T144A, the “Stability (wild type = 100)” value was 72. Still for that read-out and setting: to S145A: β1AR point mutant S145A belongs 68; to S151A: β1AR point mutant S151A, 117. Still for that read-out and setting: the same measure for R148A: β1AR point mutant R148A: 89; for Q150A: β1AR point mutant Q150A: 117; for “Y149A: β1AR point mutant Y149A, much less thermally stable”: 1. On the same count and under the same terms, the same measure for F147A: β1AR point mutant F147A: 128.
